From the Human Domainome abundance scans (Beltran et al. 2025)

B1: CD2-associated protein, residues 271 to 331; numbered along this chain, Q9Y5K6 (parent)
chain: KEYCRTLFAYEGTNEDELTFKEGEIIHLISKETGEAGWWRGELNGKEGVFPDNFAVQINEL

Variants of: B1
Test: abundance fitness (aPCA) (normalised: wild type 0, dead -1); higher = more abundant; growth selection in yeast, the domain comes from the species named
Conditions: Homo sapiens

Abundance fitness: each site, then its substitutions
D16: S -0.003 | F -0.002 | Q -0.105 | Y -0.072 | A -0.061 | E -0.018 | P -0.738 | C -0.128 | I -0.699 | K 0.026 | N 0.014 | H -0.008 | M -0.194 | L -0.091 | G 0.051 | R -0.062
E24: L -0.599 | W -0.827 | Q -0.14 | Y -0.77 | K -0.697 | V -0.318 | S -0.461 | A -0.312 | T -0.286 | N -0.824 | P -0.694 | M -0.223 | R -0.782 | D -0.036 | F -0.993
E15: A -0.072 | G -0.107 | F -0.43 | V -0.329 | W -0.343 | N -0.184 | C -0.123 | L -0.208 | D 0.027 | I -0.281 | T -0.27 | H -0.004 | Y -0.261 | R -0.12 | M -0.23 | S -0.138 | P -0.027 | K -0.268
G12: L -0.865 | W -0.471 | Q -0.513 | H -0.837 | Y -0.759 | A 0.036 | K -0.224 | C -0.329 | N -0.646 | E -0.434 | D -0.794 | M -0.786 | I -0.887 | T -0.425 | S -0.113 | P -0.381 | V -1.1 | F -0.687
E22: W -1.13 | P -0.061 | A -0.072 | S -0.119 | F -1.02 | M -0.485 | Q -0.081 | I -0.404 | C -0.4 | Y -0.915 | K 0.116 | T -0.25 | L -0.732 | R -0.209 | V -0.171 | G -0.26 | D -0.572 | N -0.437
L18: T -0.541 | V -0.524 | G -0.889 | W -0.792 | S -0.766 | F -0.685 | Q -0.831 | A -0.485 | I -0.513 | N -0.761 | H -0.843 | K -0.744 | M -0.335 | R -0.816 | C -0.913 | D -0.739
N14: S -0.024 | F -0.336 | P -0.756 | E -0.159 | A -0.023 | T -0.041 | K -0.033 | V -0.421 | H -0.107 | Q -0.012 | C 0.029 | G -0.087 | L -0.4 | R -0.061 | M -0.172 | W -0.239 | Y -0.38 | I -0.202 | D -0.107
H27: Q -0.021 | V -0.03 | W -0.276 | K 0.031 | E 0.093 | A -0.005 | S -0.083 | C 0.013 | L -0.079 | T 0.04 | N -0.165 | I -0.297 | P -0.428 | G -0.09 | F -0.26 | D -0.335
K21: R -0.064 | M -0.202 | P -0.242 | F -0.42 | Q -0.139 | W -0.538 | A -0.023 | E -0.015 | T -0.076 | G -0.027 | V -0.127 | H -0.107 | Y -0.37 | I -0.265 | L -0.203 | C -0.16 | N -0.019 | S -0.045
T13: N -0.078 | Y -0.257 | G -0.018 | R 0.042 | S -0.051 | W -0.475 | H -0.197 | Q 0.122 | F -0.416 | C 0.038 | D -0.185 | E -0.042 | V -0.083 | K 0.108 | L -0.082 | A 0.066 | P -0.594 | I -0.183
I25: P -0.794 | M -0.064 | N -0.451 | E -0.471 | F -0.302 | H -0.448 | W -0.75 | K -0.35 | R -0.372 | Q -0.234 | S -0.448 | C -0.485 | T -0.175 | G -0.602 | D -0.285 | V -0.083
A9: N -0.013 | S 0.029 | P -0.084 | F -0.469 | M -0.291 | Y -0.309 | H -0.076 | G -0.283 | L -0.599 | C -0.129 | Q -0.096 | T -0.268 | D -0.011 | I -0.542 | K -0.077 | W -0.448 | E -0.09 | R -0.144
T19: M -0.598 | C -0.287 | L -0.814 | F -0.592 | Q -0.536 | R -0.283 | I -0.693 | H -0.252 | Y -0.422 | D -0.499 | K -0.436 | V -0.66 | W -0.555 | N -0.153 | A -0.249 | E -0.696 | G -0.431
I26: H -0.537 | V -0.153 | A -0.82 | S -0.76 | R -0.829 | G -0.856 | W -0.599 | Q -0.734 | P -0.803 | D -0.7 | M -0.555 | E -0.725 | T -0.605 | C -0.46 | L -0.214
F8: K 0.128 | H -0.109 | W -0.139 | P -0.432 | Q 0.074 | Y -0.148 | R 0.12 | L -0.064 | V 0.004
E11: S -0.237 | Q -0.4 | V -0.157 | K -0.095 | G -0.384 | A -0.234 | D -0.122 | P -0.745 | C -0.256 | T -0.216 | H -0.151 | L -0.377 | F -0.151 | Y -0.19 | M -0.254 | W -0.261 | I -0.164 | R -0.263
Y10: T -0.864 | W -0.209 | H -0.373 | G -0.544 | S -0.598 | N -0.831 | C -0.659 | K -0.167 | F -0.182 | E -0.592 | L -0.744 | Q -0.439 | A -0.686 | P -0.79 | V -0.567 | I -0.846
E17: L -0.744 | T -0.428 | C -0.182 | H -0.107 | W -0.855 | V -0.497 | M -0.362 | N -0.755 | F -0.53 | P -1.12 | Q 0.049 | R -0.483 | Y -0.463 | D -0.213 | I -0.991 | G -0.58 | K -0.619 | A -0.233 | S -0.259
G23: A -0.727 | P -0.892 | Y -1.09 | W -0.532 | V -1.13 | L -0.941 | N -0.106 | E -0.564 | T -0.424 | M -0.958 | K -0.646 | S -0.465 | F -0.863 | I -0.613 | Q -0.726 | C -0.45 | H -0.644 | R -0.57
F20: A -0.808 | N -0.551 | M -0.714 | W -0.887 | L -0.709 | I -0.492 | C -0.793 | E -0.91 | S -0.564 | T -0.854 | H -0.603 | Y -0.713 | P -0.893 | D -0.523 | Q -0.629 | K -0.665
